Columns and labels:
MDA-MB-175-VII cells = assay: WST-1 metabolic activity, parental and pertuzumab resistant cells (Example 5); type: cell-based, human; details: 96 hours
Protocol: Cells were split once or twice a week in order to keep cells in exponential growth. The level of resistance was tested every month in a WST-1 viability assay as described in Example 2, until a pool of resistant cells was established.
Metabolic activity was determined after 96 hours incubation using a similar WST-1 assay as described in Example 2.

cynomolgus HER3 = assay: Kinetic binding analysis by surface plasmon resonance (ProteOn XPR36, IgG capture); details: Cynomolgus antigen
Protocol: (§1) Kinetic binding analysis of the purified humanized variants was performed on a ProteOn™ XPR36 biosensor (BioRad, USA) employing an IgG capture assay as described by Canziani et al. (Anal. Biochem. (2004) 325:301-307) that allows for measurement of antibody affinities of whole IgG molecules against soluble antigen under monovalent conditions. Briefly, approximately 5000 resonance units (RU) of a monoclonal mouse anti-human IgG Fc antibody (GE Healthcare, Denmark) was conjugated to a GLC chip surface (BioRad, USA) according to the manufacturer's instructions, followed by capture of individual antibodies of the invention or a negative control on the anti-Fc sensor surface. […] Next, 250 μl monovalent antigen (Sino Biologicals) was injected at a flow rate of 50 μl/min in serial threefold dilutions from 100 nM stock to generate response curves. The chip surface was regenerated between cycles by stripping the captured antibody/antigen complexes off the surface with a 10-second injection of 3 M MgCl2 (GE Healthcare, Denmark) repeated three times. Finally, binding responses were fitted to a Langmuir 1:1 binding model for calculation of the on-rate (kon or ka), off-rate (koff or kd) and affinity (KD) constants using double referencing.

human HER3 = target: T1, human HER3 (Homo sapiens, UniProt P21860); assay: as above; details: Human antigen
T1 construct: against soluble antigen under monovalent conditions; purchased Sino Biologicals
Protocol: as §1

[1] = test system: EGFR, HER2 and HER3 from humans, cynomolgus monkeys and mice, human and murine HER4; assay: Cross-reactivity ELISA with coated antigens; type: binding, mouse; details: OD at 450 nm, 40 nM antibody, compared to chimeric parent
Protocol: Antibody-antigen binding was measured by ELISA with coated antigens. Human antigens were obtained from Sino Biologicals. All other antigens were produced in-house by transient expression in CHO or HEK293 cells. Chimeric and humanized antibodies, as well as an isotype control antibody, were incubated with the coated antigens at different concentrations. After wash, bound antibodies were detected by HRP-(horse radish peroxidase)-conjugated secondary antibodies. The OD signal from 40 nM antibody, measured at 450 nm using an ELISA reader, was scored from negative (−; OD<0.1) to strongly positive (+++; OD>2.5).

[2] = test system: A431NS, H358, FaDu, OE19, BT474, MDA-MB-175 VII, MCF-7, N87, HN5, MFE-280 cancer cell lines; assay: Viability assay (WST-1) of humanized variants with partner antibody and of six-antibody mixtures; type: cell-based, human; details: two cell lines per variant, 96 hours
Protocol: Each humanized variant was tested in two cell lines and compared to the parental mixture of two chimeric antibodies and to a negative control antibody. […] In addition, a combination of six humanized variants (11294, 11302, 11249, 11145, 10738 and 11052; Humanized Pan-HER) was tested in a number of cell lines and compared to the combination of the six chimeric antibodies (1277, 1565, 4384, 4517, 5038 and 5082; Chimeric Pan-HER). The cell lines used, N87 gastric, FaDu head and neck, A431NS epidermoid, OE19 esophageal, HN5 head and neck, MDA-MB-175 VII breast and MFE-280 endometrial cancer, were selected on the basis of their previously determined dependency on the HER family receptors.
Prior to performing the viability assay the appropriate antibodies and antibody mixtures were diluted to a final total antibody concentration of 100 μg/ml in appropriate media supplemented with 0.5-2% FBS and 1% P/S (penicillin/streptomycin), yielding a final total antibody concentration of 50 μg/ml in the well containing the highest antibody concentration. A threefold serial dilution of the antibodies was then performed in a 384-well plate, followed by addition of relevant numbers of cells to the experimental wells. The MCF-7 cells were also stimulated with 1 nM heregulin beta. The plates were incubated for 4 days in a humidified incubator at 37° C. WST-1 reagent (Roche Applied Science, Mannheim, Germany) was added to the plates and the plates were incubated for 1-3 h at 37° C. Plates were transferred to an orbital plate shaker for one h and the absorbance was measured at 450 and 620 nm (reference wavelength) using an ELISA reader. The percentage of metabolically active cells (MAC) is calculated as a percentage of the untreated control as follows: […]

cynomolgus EGFR = assay: Kinetic binding analysis by surface plasmon resonance (ProteOn XPR36, IgG capture); details: Cynomolgus antigen
Protocol: as §1

[3] = test system: EGFR, HER2 and HER3 in H292 cells; assay: Western blot of EGFR, HER2 and HER3 in whole cell lysates (Example 6); type: cell-based, human; details: H292, 20 μg/ml, 48 hour
[4] = test system: EGFR, HER2 and HER3 in OVCAR-8 cells; assay: as above; type: cell-based, human; details: OVCAR-8, 20 μg/ml, 48 hour

pertuzumab
metabolic activity (MDA-MB-175-VII cells; parental MDA-MB-175-VII cells): reduced | metabolic activity (MDA-MB-175-VII cells; pertuzumab resistant MDA-MB-175-VII cells): unaltered

B1: antibody 10810: humanized anti-HER3 antibody from chimeric parent 5038; HC SEQ ID NO: 56, LC SEQ ID NO: 57 (antibody, V domains shown)
VH: QVQLQESGPGLVKPSQTLSLTCTVSGYSITSGFYWTWIRQHPGNGLEWIGFISYSGSNNYNPSLKNRVTISVDTSKNQFSLKLSSVTAADTATYYCARGGGYYGNLFDYWGQGTLVTVSS
VL: DIQMTQSPSSLSASVGDRVTITCRPSQDISNYVNWFQQKPGKAPKLLIFHTSRLHSGVPSRFSGSGSGTDFTLTISSLQPEDIATYYCQQGITLPWTFGQGTKVEIK
ka (cynomolgus HER3): 470000 M⁻¹ s⁻¹ | kd (cynomolgus HER3): 0.00034 s⁻¹ | ka (human HER3): 190000 M⁻¹ s⁻¹ | kd (human HER3): 0.0002 s⁻¹ | cross-reactivity pattern with HER family antigens [1]: binding to the same human and cynomolgus antigen combined with lack of binding to the mouse antigen or to other EGFR family receptors | anti-proliferative effect in combination with partner antibody, compared to mixture of the two chimeric parent antibodies [2]: highly similar anti-proliferative effects

B2: antibody 1277: chimeric parent anti-EGFR antibody disclosed in WO 2012/059857; VH SEQ ID NO: 15, light chain SEQ ID NO: 17 (antibody)
VH: RAEVQLVESGGGLVKPGESLKLSCAASGFAFSYSDMSWVRQTPEKRLEWVAYMSSAGDVTFYSDTVKGRFTISRDNAKNTLYLQVSSLKSEDTAIYYCVRHRDVAMDYWGQGTSVTVS
light: LADVVMTQTPLSLPVSLGDQASISCRSSQSLVHSNGNTYLHWYLQKPGQSPKLLIYKVSNRFSGVPDRFSGSGSGTDFTLKISRVEAEDLGVYFCSQSTHVPTFGGGTKLEIKRTVAAPSVFIFPPSDEQLKSGTASVVCLLNNFYPREAKVQWKVDNALQSGNSQESVTEQDSKDSTYSLSSTLTLSKADYEKHKVYACEVTHQGLSSPVTKSFNRGEC
ka (cynomolgus EGFR): 660000 M⁻¹ s⁻¹ | kd (cynomolgus EGFR): 0.00039 s⁻¹ | EGFR, HER2 and HER3 levels in whole cell lysates [3]: HER2 upregulation

B3: antibody 1565: chimeric parent anti-EGFR antibody disclosed in WO 2012/059857; VH SEQ ID NO: 19, light chain SEQ ID NO: 21 (antibody)
VH: RAEVQLQQSGTELVKPGASVILSCKASGYTFTSYWMQWVKQRPGQGLEWIGNINPSNGGTSFNEEFKSRATLTVDKSSSTAYMQLSSLTSEDSAVYYCARDGGLYDGYYFDFWGQGTTLTVS
light: LANIVMTQSHKFMSTLIGARVSITCKASQDVDTAVAWYQQKPGQSPKLLIYWASTRHTGVPDRFTGSGSGTDFSLTVSNVQSEDLTDYFCQQYSSYPLTFGAGTKLELKRTVAAPSVFIFPPSDEQLKSGTASVVCLLNNFYPREAKVQWKVDNALQSGNSQESVTEQDSKDSTYSLSSTLTLSKADYEKHKVYACEVTHQGLSSPVTKSFNRGEC
ka (cynomolgus EGFR): 580000 M⁻¹ s⁻¹ | kd (cynomolgus EGFR): 0.016 s⁻¹ | EGFR, HER2 and HER3 levels in whole cell lysates [3]: HER2 upregulation

B4: antibody 5082: chimeric parent anti-HER3 antibody disclosed in WO 2012/059857; VH SEQ ID NO: 35, light chain SEQ ID NO: 37 (antibody)
VH: RAEVQLKESGPGLVKPSQSLSLTCSVTGYSITSAYYWNWIRQFPGNKVEWMGYIGYDGRNTYNPSLKNRISITRDTSKNQFFLKLNSLTTEDTATYYCSREGDYGYSDYWGQGTTLTVS
light: LADIVMTQATSSLSASLGDRVTVSCRASQDINNYLNWYQQKPDGTVKLLIYYTSRLQSGVPSRFSGSGSGIDYSLTISNLEQEDFVTYFCQQSETLPWTFGGGTKLELKRTVAAPSVFIFPPSDEQLKSGTASVVCLLNNFYPREAKVQWKVDNALQSGNSQESVTEQDSKDSTYSLSSTLTLSKADYEKHKVYACEVTHQGLSSPVTKSFNRGEC
ka (cynomolgus HER3): 1.7e+06 M⁻¹ s⁻¹ | kd (cynomolgus HER3): 0.00016 s⁻¹ | ka (human HER3): 910000 M⁻¹ s⁻¹ | kd (human HER3): 7.3e-05 s⁻¹ | EGFR, HER2 and HER3 levels in whole cell lysates [4]: HER2 up-regulation

B5: antibody 11052: humanized anti-HER3 antibody from chimeric parent 5082; HC SEQ ID NO: 60, LC SEQ ID NO: 61 (antibody, V domains shown)
VH: QVQLQESGPGLVKPSQTLSLTCTVSGYSITSAYYWNWIRQFPGKGVEWMGYIGYSGRNTYNPSLKNRVTISRDTSKNQFSLKLSSVTAADTAVYYCSREGDYGYSDYWGQGTLVTVSS
VL: DIQMTQSPSSLSASVGDRVTVTCRASQDINNYLNWYQQKPGKAVKLLIYYTSRLQSGVPSRFSGSGSGTDYTLTISSLQPEDFATYFCQQSETLPWTFGQGTKLEIK
ka (cynomolgus HER3): 1.3e+06 M⁻¹ s⁻¹ | kd (cynomolgus HER3): 0.00026 s⁻¹ | ka (human HER3): 870000 M⁻¹ s⁻¹ | kd (human HER3): 0.00016 s⁻¹ | cross-reactivity pattern with HER family antigens [1]: binding to the same human and cynomolgus antigen combined with lack of binding to the mouse antigen or to other EGFR family receptors | anti-proliferative effect in combination with partner antibody, compared to mixture of the two chimeric parent antibodies [2]: highly similar anti-proliferative effects

B6: MM-121: anti-HER3 treatment lane in the OVCAR-8 Western blot (antibody, chains of the INN, looked up)
heavy: EVQLLESGGGLVQPGGSLRLSCAASGFTFSHYVMAWVRQAPGKGLEWVSSISSSGGWTLYADSVKGRFTISRDNSKNTLYLQMNSLRAEDTAVYYCTRGLKMATIFDYWGQGTLVTVSSASTKGPSVFPLAPCSRSTSESTAALGCLVKDYFPEPVTVSWNSGALTSGVHTFPAVLQSSGLYSLSSVVTVPSSNFGTQTYTCNVDHKPSNTKVDKTVERKCCVECPPCPAPPVAGPSVFLFPPKPKDTLMISRTPEVTCVVVDVSHEDPEVQFNWYVDGVEVHNAKTKPREEQFNSTFRVVSVLTVVHQDWLNGKEYKCKVSNKGLPAPIEKTISKTKGQPREPQVYTLPPSREEMTKNQVSLTCLVKGFYPSDIAVEWESNGQPENNYKTTPPMLDSDGSFFLYSKLTVDKSRWQQGNVFSCSVMHEALHNHYTQKSLSLSPG
light: QSALTQPASVSGSPGQSITISCTGTSSDVGSYNVVSWYQQHPGKAPKLIIYEVSQRPSGVSNRFSGSKSGNTASLTISGLQTEDEADYYCCSYAGSSIFVIFGGGTKVTVLGQPKAAPSVTLFPPSSEELQANKATLVCLVSDFYPGAVTVAWKADGSPVKVGVETTKPSKQSNNKYAASSYLSLTPEQWKSHRSYSCRVTHEGSTVEKTVAPAECS
EGFR, HER2 and HER3 levels in whole cell lysates [4]: HER2 up-regulation
